US10864269B2, “Therapeutic combinations comprising anti-CD73 antibodies and uses thereof” (MedImmune Limited, priority 2014, dated 2020)

T1: native CD73, MDA-MB-231 cells (Homo sapiens, UniProt P21589)
T1 construct: native CD73 expressed on human, murine, and cynomolgus monkey cell lines; endogenous in cells; host or cells: MDA-MB-231
T1 sequence (P21589 27-549): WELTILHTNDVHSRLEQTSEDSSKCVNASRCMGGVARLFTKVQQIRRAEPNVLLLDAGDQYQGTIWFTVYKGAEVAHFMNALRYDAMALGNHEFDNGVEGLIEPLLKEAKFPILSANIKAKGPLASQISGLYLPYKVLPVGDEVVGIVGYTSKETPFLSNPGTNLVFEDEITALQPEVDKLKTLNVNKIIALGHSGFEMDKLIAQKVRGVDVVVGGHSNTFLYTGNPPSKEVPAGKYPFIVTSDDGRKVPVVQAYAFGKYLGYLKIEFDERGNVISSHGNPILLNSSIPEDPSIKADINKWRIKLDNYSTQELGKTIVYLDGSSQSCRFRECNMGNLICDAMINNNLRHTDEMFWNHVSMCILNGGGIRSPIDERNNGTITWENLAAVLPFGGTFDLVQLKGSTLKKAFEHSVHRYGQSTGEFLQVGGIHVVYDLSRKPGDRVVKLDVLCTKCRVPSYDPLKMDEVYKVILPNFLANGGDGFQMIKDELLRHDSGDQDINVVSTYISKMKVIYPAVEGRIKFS

T2: huCD73 (Homo sapiens, UniProt P21589)
T2 sequence (P21589 27-549): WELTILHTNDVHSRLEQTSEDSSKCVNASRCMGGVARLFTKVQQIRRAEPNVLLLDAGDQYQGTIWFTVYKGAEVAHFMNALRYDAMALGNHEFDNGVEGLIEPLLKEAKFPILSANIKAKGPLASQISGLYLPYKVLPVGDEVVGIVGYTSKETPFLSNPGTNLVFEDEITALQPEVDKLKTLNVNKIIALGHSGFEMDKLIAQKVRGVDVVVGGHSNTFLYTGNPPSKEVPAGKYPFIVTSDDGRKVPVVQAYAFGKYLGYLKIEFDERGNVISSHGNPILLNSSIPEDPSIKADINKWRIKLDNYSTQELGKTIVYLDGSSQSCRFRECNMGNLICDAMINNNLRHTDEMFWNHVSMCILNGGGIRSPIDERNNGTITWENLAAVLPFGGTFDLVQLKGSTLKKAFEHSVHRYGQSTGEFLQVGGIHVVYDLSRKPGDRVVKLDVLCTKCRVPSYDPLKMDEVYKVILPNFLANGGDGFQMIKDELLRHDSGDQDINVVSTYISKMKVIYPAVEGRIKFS

T3: murine CD73 (Mus musculus, UniProt Q61503)
T3 sequence (Q61503 29-551): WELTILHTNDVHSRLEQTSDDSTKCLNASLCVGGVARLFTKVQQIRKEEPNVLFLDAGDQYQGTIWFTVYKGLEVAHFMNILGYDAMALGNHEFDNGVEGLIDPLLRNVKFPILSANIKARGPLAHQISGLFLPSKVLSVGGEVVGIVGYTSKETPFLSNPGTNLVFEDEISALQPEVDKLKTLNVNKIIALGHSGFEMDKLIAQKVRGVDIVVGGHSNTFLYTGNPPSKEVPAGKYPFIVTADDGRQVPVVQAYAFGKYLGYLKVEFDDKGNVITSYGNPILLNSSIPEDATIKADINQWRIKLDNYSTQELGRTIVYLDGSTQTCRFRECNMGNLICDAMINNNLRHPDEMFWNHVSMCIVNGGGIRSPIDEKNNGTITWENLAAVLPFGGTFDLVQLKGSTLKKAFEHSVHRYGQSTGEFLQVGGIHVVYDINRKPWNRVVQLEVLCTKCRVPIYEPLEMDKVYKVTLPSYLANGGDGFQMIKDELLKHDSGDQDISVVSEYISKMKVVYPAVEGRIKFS

T4: muCD73 (Mus musculus, UniProt Q61503)
T4 sequence (Q61503 29-551): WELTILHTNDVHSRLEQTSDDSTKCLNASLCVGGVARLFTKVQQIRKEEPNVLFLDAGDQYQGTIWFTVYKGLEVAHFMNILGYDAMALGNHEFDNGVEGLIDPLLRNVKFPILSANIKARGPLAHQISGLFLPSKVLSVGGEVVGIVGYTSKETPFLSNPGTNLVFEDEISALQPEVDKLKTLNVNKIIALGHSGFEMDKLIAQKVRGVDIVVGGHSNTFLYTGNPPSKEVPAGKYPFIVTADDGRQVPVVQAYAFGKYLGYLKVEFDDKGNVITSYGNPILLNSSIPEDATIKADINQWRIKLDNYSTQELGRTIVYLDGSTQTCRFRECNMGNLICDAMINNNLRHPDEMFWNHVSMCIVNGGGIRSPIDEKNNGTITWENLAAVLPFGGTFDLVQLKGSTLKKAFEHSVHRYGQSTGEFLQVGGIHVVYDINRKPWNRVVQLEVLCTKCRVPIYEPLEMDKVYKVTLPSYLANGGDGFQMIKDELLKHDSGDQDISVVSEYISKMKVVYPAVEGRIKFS


Experiments:
[1] = biological target: T1, native CD73, MDA-MB-231 cells; assay: Flow cytometry binding to native CD73, MDA-MB-231 cells; conditions: as measured by flow cytometry; read-out: KD, CD73 on the surface of MB-MDA-231 cells
Description: (§1) Binding of MEDI9447 to native CD73 expressed on human, murine, and cynomolgus monkey cell lines was characterized by flow cytometry. The cells were incubated with various concentrations of MEDI9447 and antibody binding was monitored with and fluorophore-labeled anti-human Fc antibody. A plot of the median fluorescence intensity as a function of the MEDI9447 concentration was fitted nonlinearly using a one-site binding isotherm model to calculate the equilibrium dissociation constant.
(§2) The affinity of enhanced anti-CD73 antibodies (in IgG1-TM format) to human, murine, and cynomolgus CD73 was determined by flow cytometry and surface plasmon resonsance (SPR) (Table 13). The enhanced antibodies had pM affinity to cellular and recombinant CD73 from the three species.
(§3) All flow cytometry experiments were run at 4C and reagents were prepared in PBS/1% FBS buffer. 10,000 cells were incubated with test antibody in 50 uL volume for 4 hours. Cells were washed twice and incubated in 50 uL goat anti-human IgGFc-AlexaFluor647 conjugate for 15 minutes. Cells were washed, resuspended in buffer supplemented with Dapi, and analyzed on a flow cytometer. […] For the determination of KD values, a plot of the median fluorescence intensity as a function of test antibody concentration was fitted nonlinearly using a one site binding isotherm model.

[2] = test system: native CD73, MK-1 cells; assay: Flow cytometry binding to native CD73, MK-1 cells; conditions: as measured by flow cytometry; read-out: KD, CD73 on the surface of cynomolgus MK-1 cells
Description: as §1, §2, §3

[3] = biological target: T2, huCD73; assay: Solution binding, human CD73; conditions: as measured by solution binding
[4] = biological target: T3, murine CD73; assay: Solution binding, murine CD73; conditions: as measured by solution binding
[5] = biological target: cynomolgus CD73; assay: Solution binding, cynomolgus CD73; conditions: as measured by solution binding
[6] = biological target: T2, huCD73; assay: ELISA binding of Fab variants to human CD73; conditions: combinatorial Fab library clones, capture ELISA and direct ELISA
Excerpt: (§4) CD730010GL9 IgG1-TM was enhanced by screening Fab libraries comprising variant CDR sequences with single amino acid mutations. Each of the 61 positions in the six CDRs was individually randomized to 19 amino acids (all natural amino acids except Cysteine), generating a library with a theoretical diversity of 1159 unique clones (19 amino acids per position times 61 positions). Bacterial Fab fragments were produced from 4224 clones of the library and screened for binding to human and murine CD73 protein by capture ELISA (Assay 2). 180 clones with increased binding signal compared to parental CD730010 GL9 IgG1-TM were selected and the mutations in the VH or VL domain were identified by DNA sequencing. The Fab concentration in the bacterial supernatants was normalized and the binding of the normalized supernatants to human and murine CD73 protein was evaluated by direct ELISA (Assay 1). Table 11 lists selected beneficial single amino acid substitutions and their effect on binding to recombinant CD73 protein.
(§5) To further improve the affinity of the anti-CD73 antibody, several single amino acid changes which improved binding when compared to parental CD730010 GL9 were combined to create a combinatorial Fab library (Assay 4). Fab fragments of 4224 clones of the combinatorial library were produced in E. coli and screened for binding to human and murine CD73 protein by capture ELISA. […]
(§6) 384-well ELISA plates were coated with about 1.5 ng/well recombinant CD73 protein, blocked with 1% BSA/0.1% Tween20/PBS and incubating with antibody samples for 90 minutes at room temperature. […] HRP activity was detected with tetra methyl benzidine (TMB) substrate and the reaction was stopped with 1 M HCl. Plates were read at 450 nm.
(§7) 384-well ELISA plates were coated with about 3 ng/well sheep-anti-human Fd antibody (for screening antibodies in Fab format), blocked with 1% BSA/0.1% Tween20/PBS and incubating with samples for 90 minutes at room temperature. […] HRP activity was detected with tetra methyl benzidine (TMB) substrate and the reaction was stopped with 1 M HCl. Plates were read at 450 nm.

[7] = biological target: T4, muCD73; assay: ELISA binding of Fab variants to murine CD73; conditions: combinatorial Fab library clones, capture ELISA and direct ELISA
Excerpt: as §4, §5, §6, §7

Molecule | Kd [1] | Kd [2] | Kd [3] | Kd [4] | Kd [5] | binding to human CD73 [6] | binding to murine CD73 [7]
CD730002 2C5: IgG1 with CD730002-derived VL of SEQ ID NO: 88 and VH of SEQ ID NO: 87 (antibody, V domains shown) VH: EVQLLESGGGLVQPGGSLRLSCAASGFTFSSYAMSWVRQAPGKGLEWVSAISGSGGSTYYADSVKRRFTISRDNSKNTLYLQMNSLRAEDTAVYYCARDKGYYWYMDVWGQGTMVTVSS VL: QSVLTQPPSVSVSPGQTASITCSGDKVGDKYASWYQQKPGQSPVLVIYEDTKRLSGIPERFSGSNSGNTATLTISGTQAMDEADYYCQAWDTSFWVFGGGTKLTVL | ~0.08 nM | ~0.06 nM | ~0.08 nM | ~1.5 nM | ~0.1 nM |  | 
C2: combinatorial library clone of CD730010 GL9; VL SEQ ID NO: 61, VH SEQ ID NO: 75 (antibody, V domains shown) VH: EVQLLESGGGLVQPGGSLRLSCAASGFTFSSYAYSWVRQAPGKGLEWVSLIWGSWGSTYYADSVKGRFTISRDNSKNTLYLQMNSLRAEDTAVYYCARLGYSTIDMWGRGTLVTVSS VL: QSVLTQPPSASGTPGQRVTISCSGSLSNIGRNPVNWYQQLPGTAPKLLIYLDNLRLGGVPDRFSGSKSGTSASLAISGLQSEDEADYYCATWDDSLKGWLFGGGTKLTVL |  |  |  |  |  | strong binding | strong binding
D3: combinatorial library clone of CD730010 GL9; VL SEQ ID NO: 62, VH SEQ ID NO: 76 (antibody, V domains shown) VH: EVQLLESGGGLVQPGGSLRLSCAASGFTFSSYAYSWVRQAPGKGLEWVSAISGSGGRTYYADSVKGRFTISRDNSKNTLYLQMNSLRAEDTAVYYCARLGYSTIDLWGRGTLVTVSS VL: QSVLTQPPSASGTPGQRVTISCSGSLSNIGRNPVNWYQQLPGTAPKLLIYLDNLRLSGVPDRFSGSKSGTSASLAISGLQSEDEADYYCATWDDSLIGWLFGGGTKLTVL |  |  |  |  |  | strong binding | strong binding
G10: combinatorial library clone of CD730010 GL9; VL SEQ ID NO: 63, VH SEQ ID NO: 77 (antibody, V domains shown) VH: EVQLLESGGGLVQPGGSLRLSCAASGFTFSSYAYSWVRQAPGKGLEWVSAISGSWGRTYYADSVKGRFTISRDNSKNTLYLQMNSLRAEDTAVYYCARLGYSTIDLWGRGTLVTVSS VL: QSVLTQPPSASGTPGQRVTISCSGSLSNIGRNDVNWYQQLPGTAPKLLIYLNNQRLGGVPDRFSGSKSGTSASLAISGLQSEDEADYYCATWDDSLKGWLFGGGTKLTVL |  |  |  |  |  | strong binding | strong binding
